Positions count from the first letter of the chain named. Values belong to the binder of their own block, whether it stands above or below them.
What was measured:
[1] = target: T1, Human EpCAM-Fc-his tagged (human); assay: BLI (ForteBio Octet), antibody loaded on Protein A tips, recombinant polyhistidine-tagged EpCAM-Fc in solution, 1:1 model
T1 construct: also called Recombinant polyhistidine-tagged EpCAM-Fc; recombinant EpCAM
Description: For Octet analysis, all reagents and samples are brought to room temperature. Protein A sensor tips (ForteBio, #18-5010) are hydrated for 10 minutes in 1×PBS. Assay steps include: 1-2 minutes of equilibration in 1×PBS, 4 minutes of antibody loading (concentration of 50 μg/ml in 1×PBS), 1-2 minutes of baseline stabilization, 4 minutes of antibody:antigen association, and 4 minutes of antibody:antigen dissociation. 1×PBS is used as the matrix throughout. Data are analyzed with Octet Data Analysis software, processed, and fit to a 1:1 binding model to determine kinetic parameters (Kd, kₒₙ and kdiss).
Table A-2 describes approximate EpCAM binding affinity and dissociation rate as determined for Ab#1, Ab#2, Ab#3, Ab#4, Ab#5, Ab#6, Ab#7, Ab#8, Ab#9, Ab#10, Ab#11, Ab#12, and Ab#13.

cMet-his = target: T2, cMet-his (Homo sapiens (Human), UniProt P08581 25-933); assay: BLI (ForteBio Octet), antibody loaded on Protein A tips, his tagged cMET in solution, 1:1 model
T2 construct: also called his tagged cMET; Recombinant polyhistidine-tagged c-Met
Description: Protocol: All reagents are equilibrated and samples are brought to room temperature. Protein A sensor tips (Fortebio, #18-5010) are hydrated for 10 min in 1×PBS. Kinetic assays are run using the Octet software and procedure per manufacturer's instruction. Assay steps typically include: 1-2 min of equilibration in 1×PBS, 4 min of antibody loading (conc: 50 μg/mL in 1×PBS), 1-2 min of baseline stabilization, 4 min of antibody:antigen association, and 4 min of antibody:antigen dissociation. 1×PBS is used as the matrix throughout. Data are analyzed with Octet Data Analysis software, processed, and fit to the curve using 1:1 binding model to determine kinetic parameters (Kₐ, Kₒₙ and Koff)

T1 sequence (chain, as listed by the source): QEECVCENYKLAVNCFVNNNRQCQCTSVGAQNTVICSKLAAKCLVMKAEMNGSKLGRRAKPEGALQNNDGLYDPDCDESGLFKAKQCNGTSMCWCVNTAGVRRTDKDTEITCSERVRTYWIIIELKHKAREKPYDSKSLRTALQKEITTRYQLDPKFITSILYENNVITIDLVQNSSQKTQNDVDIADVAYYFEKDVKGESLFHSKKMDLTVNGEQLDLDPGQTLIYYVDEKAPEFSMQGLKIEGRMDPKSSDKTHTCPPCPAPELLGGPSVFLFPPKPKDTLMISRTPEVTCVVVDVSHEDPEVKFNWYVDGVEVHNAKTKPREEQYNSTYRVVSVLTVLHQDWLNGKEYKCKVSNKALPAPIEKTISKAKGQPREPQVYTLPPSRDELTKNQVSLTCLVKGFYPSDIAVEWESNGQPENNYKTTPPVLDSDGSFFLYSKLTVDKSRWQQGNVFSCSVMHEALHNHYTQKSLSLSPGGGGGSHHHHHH

Kd [1]: 10 nM
koff [1]: 0.00043 s⁻¹
B1: Ab#9 (bispecific antibody, human IgG1, kappa)
heavy: QLQLQESGPGLVKPSETLSLTCTVSGGSISSSVYYWSWIRQPPGKGLEWIGVIYPSGNTYYSPSLKSRVTISVDTSKNQFSLKLSSVTAADTAVYYCARTIYDLFDIWGQGTMVTVSSASTKGPSVFPLAPSSKSTSGGTAALGCLVKDYFPEPVTVSWNSGALTSGVHTFPAVLQSSGLYSLSSVVTVPSSSLGTQTYICNVNHKPSNTKVDKKVEPKSCDKTHTCPSCPAPEFLGGPSVFLFPPKPKDTLMISRTPEVTCVVVDVSQEDPEVQFNWYVDGVEVHNAKTKPREEQFNSKYRVVSVLTVLHQDWLNGKEYKCKVSNKGLPSSIEKTISKAKGQPREPQVYTLPPSREEMTKNQVSLSCAVKGFYPSDIAVEWESNGQPENNYKTTPPVLDSDGSFFLVSKLTVDKSRWQQGNVFSCSVMHEALHNHYTQKSLSLSKSCDKTGGGGSGGGGSGGGGSGGGGSGGGGSGGGGSGGGGSGGGGSCPSCPAPEFLGGPSVFLFPPKPKDTLMISRTPEVTCVVVDVSQEDPEVQFNWYVDGVEVHNAKTKPREEQFNSDYRVVSVLTVLHQDWLNGKEYKCKVSNKGLPSSIEKTISKAKGQPREPQVYTLPPSREEMTKNQVSLWCLVKGFYPSDIAVEWESNGQPENNYKTTPPVLDSDGSFFLYSKLTVDKSRWQQGNVFSCSVMHEALHNHYTQKSLSLSGECGGGGSGGGGSQVQLQQSGGGLVKPGESVKISCAASGYTFTNYGMNWVKQAPGKGLKWMGWINTYTGESTYADDFKGRFTFSLETSASAAYLQINSLRPEDTAVYFCARFAIKGDYWGQGTTVTVSSASTGGGGSGGGGSGGGGSGGGGSGDIVMTQSPSSLSASVGDKATITCRSTKSLLHSNGITYLYWYLQKPGKAPKLLIYQMSNLASGVPDRFSSSGSGTEFTLTISSVQPEDEGTYYCAQNLEIPRTFGQGTKLEIK
light: DIQMTQSPSSVSASVGDRVTITCRASQGISSWLAWYQQKPGKAPKLLIYAASSLQSGVPSRFSGSGSGTDFTLTISSLQPEDFATYYCLQANSFPPTFGGGTKVEIKRTVAAPSVFIFPPSDEQLKSGTASVVCLLNNFYPREAKVQWKVDNALQSGNSQESVTEQDSKDSTYSLSSTLTLSKADYEKHKVYACEVTHQGLSSPVTKSFNRGEC
notes: Anti-c-Met Fab / tandem Fc / anti-EpCAM scFv TFcBA; also called Antibody #9

Kd [1]: 4.57 nM
koff [1]: 0.000409 s⁻¹
B2: Ab#11 (bispecific antibody, human IgG1, kappa)
heavy: QLQLQESGPGLVKPSETLSLTCTVSGGSISSSVYYWSWIRQPPGKGLEWIGVIYPSGNTYYSPSLKSRVTISVDTSKNQFSLKLSSVTAADTAVYYCARTIYDLFDIWGQGTMVTVSSASTKGPSVFPLAPSSKSTSGGTAALGCLVKDYFPEPVTVSWNSGALTSGVHTFPAVLQSSGLYSLSSVVTVPSSSLGTQTYICNVNHKPSNTKVDKKVEPKSCDKTHTCPSCPAPEFLGGPSVFLFPPKPKDTLMISRTPEVTCVVVDVSQEDPEVQFNWYVDGVEVHNAKTKPREEQFNSKYRVVSVLTVLHQDWLNGKEYKCKVSNKGLPSSIEKTISKAKGQPREPQVYTLPPSREEMTKNQVSLSCAVKGFYPSDIAVEWESNGQPENNYKTTPPVLDSDGSFFLVSKLTVDKSRWQQGNVFSCSVMHEALHNHYTQKSLSLSKSCDKTGGGGSGGGGSGGGGSGGGGSGGGGSGGGGSGGGGSGGGGSCPSCPAPEFLGGPSVFLFPPKPKDTLMISRTPEVTCVVVDVSQEDPEVQFNWYVDGVEVHNAKTKPREEQFNSDYRVVSVLTVLHQDWLNGKEYKCKVSNKGLPSSIEKTISKAKGQPREPQVYTLPPSREEMTKNQVSLWCLVKGFYPSDIAVEWESNGQPENNYKTTPPVLDSDGSFFLYSKLTVDKSRWQQGNVFSCSVMHEALHNHYTQKSLSLSGECGGGGSGGGGSDIVMTQSPSSLSASVGDKATITCRSTKSLLHSNGITYLYWYLQKPGKAPKLLIYQMSNLASGVPDRFSSSGSGTEFTLTISSVQPEDEGTYYCAQNLEIPRTFGQGTKLEIKRTGGGGSGGGGSGGGGSGGGGSGQVQLQQSGGGLVKPGESVKISCAASGYTFTNYGMNWVKQAPGKGLKWMGWINTYTGESTYADDFKGRFTFSLETSASAAYLQINSLRPEDTAVYFCARFAIKGDYWGQGTTVTVSS
light: B1 light
notes: Anti-c-Met Fab / tandem Fc / anti-EpCAM scFv TFcBA; also called Antibody #11

Kd [1]: 26.2 nM
koff [1]: 0.00211 s⁻¹
B3: Ab#10 (bispecific antibody, human IgG1, kappa)
heavy: B1 heavy with N896D, M919L
light: B1 light
notes: Anti-c-Met Fab / tandem Fc / anti-EpCAM scFv TFcBA; also called Antibody #10

Kd [1]: 24.5 nM
koff [1]: 0.00166 s⁻¹
B4: Ab#12 (bispecific antibody)
heavy: B2 heavy with N756D, M779L
light: B1 light
notes: Anti-c-Met Fab / tandem Fc / anti-EpCAM scFv TFcBA; also called Antibody #12

Kd (cMet-his): 1.3 nM
B5: Onartuzumab-23E (antibody)
heavy: EVQLVESGGGLVQPGGSLRLSCAASGYTFTSYWLHWVRQAPGKGLEWVGMIDPSNSDTRFNPNFKDRFTISADTSKNTAYLQMNSLRAEDTAVYYCATYRSYVTPLDYWGQGTLVTVSSASTKGPSVFPLAPSSKSTSGGTAALGCLVKDYFPEPVTVSWNSGALTSGVHTFPAVLQSSGLYSLSSVVTVPSSSLGTQTYICNVNHKPSNTKVDKKVEPKSCDKTHTCPPCPAPELLGGPSVFLFPPKPKDTLMISRTPEVTCVVVDVSHEDPEVKFNWYVDGVEVHNAKTKPREEQYQSTYRVVSVLTVLHQDWLNGKEYKCKVSNKALPAPIEKTISKAKGQPREPQVYTLPPSREEMTKNQVSLSCAVKGFYPSDIAVEWESNGQPENNYKTTPPVLDSDGSFFLVSKLTVDKSRWQQGNVFSCSVMHEALHNHYTQKSLSLSKSCDKTGGGGSGGGGSGGGGSGGGGSGGGGSGGGGSGGGGSGGGGSCPPCPAPELLGGPSVFLFPPKPKDTLMISRTPEVTCVVVDVSHEDPEVKFNWYVDGVEVHNAKTKPREEQYQSTYRVVSVLTVLHQDWLNGKEYKCKVSNKALPAPIEKTISKAKGQPREPQVYTLPPSREEMTKNQVSLWCLVKGFYPSDIAVEWESNGQPENNYKTTPPVLDSDGSFFLYSKLTVDKSRWQQGNVFSCSVMHEALHNHYTQKSLSLSGEC
light: DIQMTQSPSSLSASVGDRVTITCKSSQSLLYTSSQKNYLAWYQQKPGKAPKLLIYWASTRESGVPSRFSGSGSGTDFTLTISSLQPEDFATYYCQQYYAYPWTFGQGTKVEIKRTVAAPSVFIFPPSDEQLKSGTASVVCLLNNFYPREAKVQWKVDNALQSGNSQESVTEQDSKDSTYSLSSTLTLSKADYEKHKVYACEVTHQGLSSPVTKSFNRGEC
notes: Monovalent tandem Fc antibody: onartuzumab anti-c-Met Fab on IgG1 TFc 23E

Kd (cMet-his): 1.24 nM
B6: Onartuzumab-23 (antibody)
heavy: EVQLVESGGGLVQPGGSLRLSCAASGYTFTSYWLHWVRQAPGKGLEWVGMIDPSNSDTRFNPNFKDRFTISADTSKNTAYLQMNSLRAEDTAVYYCATYRSYVTPLDYWGQGTLVTVSSASTKGPSVFPLAPSSKSTSGGTAALGCLVKDYFPEPVTVSWNSGALTSGVHTFPAVLQSSGLYSLSSVVTVPSSSLGTQTYICNVNHKPSNTKVDKKVEPKSCDKTHTCPPCPAPELLGGPSVFLFPPKPKDTLMISRTPEVTCVVVDVSHEDPEVKFNWYVDGVEVHNAKTKPREEQYQSTYRVVSVLTVLHQDWLNGKEYKCKVSNKALPAPIEKTISKAKGQPREPQVYTLPPSREEMTKNQVSLSCAVKGFYPSDIAVEWESNGQPENNYKTTPPVLDSDGSFFLVSKLTVDKSRWQQGNVFSCSVMHEALHNHYTQKSLSLSPGKGGGGSGGGGSGGGGSGGGGSGGGGSGGGGSGGGGSGGGGSCPPCPAPELLGGPSVFLFPPKPKDTLMISRTPEVTCVVVDVSHEDPEVKFNWYVDGVEVHNAKTKPREEQYQSTYRVVSVLTVLHQDWLNGKEYKCKVSNKALPAPIEKTISKAKGQPREPQVYTLPPSREEMTKNQVSLWCLVKGFYPSDIAVEWESNGQPENNYKTTPPVLDSDGSFFLYSKLTVDKSRWQQGNVFSCSVMHEALHNHYTQKSLSLSPGK
light: B5 light
notes: Monovalent tandem Fc antibody: onartuzumab anti-c-Met Fab on IgG1 TFc 23

Kd (cMet-his): 1.25 nM
B7: Onartuzumab-39EGY4 (antibody)
heavy: EVQLVESGGGLVQPGGSLRLSCAASGYTFTSYWLHWVRQAPGKGLEWVGMIDPSNSDTRFNPNFKDRFTISADTSKNTAYLQMNSLRAEDTAVYYCATYRSYVTPLDYWGQGTLVTVSSASTKGPSVFPLAPSSKSTSGGTAALGCLVKDYFPEPVTVSWNSGALTSGVHTFPAVLQSSGLYSLSSVVTVPSSSLGTQTYICNVNHKPSNTKVDKKVEPKSCDKTHTCPSCPAPEFLGGPSVFLFPPKPKDTLMISRTPEVTCVVVDVSQEDPEVQFNWYVDGVEVHNAKTKPREEQFNSKYRVVSVLTVLHQDWLNGKEYKCKVSNKGLPSSIEKTISKAKGQPREPQVYTLPPSREEMTKNQVSLSCAVKGFYPSDIAVEWESNGQPENNYKTTPPVLDSDGSFFLVSKLTVDKSRWQQGNVFSCSVMHEALHNHYTQKSLSLSKSCDKTGGGGSGGGGSGGGGSGGGGSGGGGSGGGGSGGGGSGGGGSCPSCPAPEFLGGPSVFLFPPKPKDTLMISRTPEVTCVVVDVSQEDPEVQFNWYVDGVEVHNAKTKPREEQFNSDYRVVSVLTVLHQDWLNGKEYKCKVSNKGLPSSIEKTISKAKGQPREPQVYTLPPSREEMTKNQVSLWCLVKGFYPSDIAVEWESNGQPENNYKTTPPVLDSDGSFFLYSKLTVDKSRWQQGNVFSCSVMHEALHNHYTQKSLSLSGEC
light: B5 light
notes: Monovalent tandem Fc antibody: onartuzumab anti-c-Met Fab on IgG1/IgG4 hybrid TFc 39E glycoform 4
